# No end group written: not given here.
# Tests used:
# mouse C127 cells = assay: FRAP, nuclear mobility of GFP fusion proteins; type: cell-based; settings: compared to wild-type GFP-CFP1
# Procedure: FRAP experiments were performed on an UltraView spinning disk microscope (Perkin Elmer) equipped with an EM-CCD camera (Hamamatsu) using a 60x/1.4NA oil objective. 50 pre-bleach and 1,000 post-bleach images were captured at a rate of 8 frames per second (fps) (Figures 1B and C) after bleaching a circular diffraction limited spot of ∼2.5 μm diameter using a 488-nm laser line at 100% transmission. Alternatively, to capture the rapid recovery of the P/C/S^∗ mutant effectively, we used an acquisition rate of 13 fps (Figures 1E and F). FRAP curves were calculated in MATLAB, normalizing for the initial conditions (brightness of the cell and brightness of the spot) and corrected for acquisition photobleaching over time ([Mueller et al., 2012]). Half recovery times (t1/2) were calculated using a biexponential fit. Briefly, this involved deriving t1/2 values from individual cells (Figures S1F and S1G) and then collecting the distribution of t1/2 values across biological triplicates for the same transgene (Figures S1H and S1I). To compare the dynamics of individual GFP-CFP1 transgenes, a Student’s t test was then used to calculate the probability (p) that there was no difference between the wild-type and mutant versions of CFP1.
# Supplementary Experimental Procedures: […]
# Fluorescence recovery after photobleaching (FRAP) […]
# CFP1 PHD domain [1] = assay: NMR titration; 1H,15N HSQC of 0.1-0.2 mM uniformly 15N-labelled CFP1 PHD finger; histone tail peptides added stepwise; 20 mM Tris-HCl pH 6.8, 100 mM NaCl, 2.5 mM DTT, 7% D2O; 298 K
# CFP1 PHD domain [2] = assay: other fluorescence titration; intrinsic fluorescence of the CFP1 PHD finger, excitation 280 nm, emission 320-380 nm; increasing concentrations of histone peptide; 20 mM Tris-HCl pH 6.8, 100 mM NaCl, 2.5 mM DTT; 25°C
Kd (CFP1 PHD domain [2]),Molecule,also measured
–,GFP-SET1A: GFP-tagged wild-type SET1A,Nuclear mobility (FRAP) (mouse C127 cells): slightly less mobile than GFP-CFP1
–,"ARTKQTARKSTG (here or on the partner: zinc-bound PHD finger; 15N-labelled for NMR. Construct limits are not in the text shown, so the UniProt PHD-type zinc finger limits are used; human is inferred from the NP_001095124.1 alignment and th) [unmodified H3K4me0 peptide]",Kd (CFP1 PHD domain [1]): 373 µM
1.3 µM,ARTK(trimethyl)QTARKSTG [H3K4me3 peptide],–
64 µM,ARTK(Me)QTARKSTG [H3K4me1 peptide],–
9.1 µM,ARTK(dimethyl)QTARKSTG [H3K4me2 peptide],–

# Reference: paper PMC5603731, “The SET1 Complex Selects Actively Transcribed Target Genes via Multivalent Interaction with CpG Island Chromatin” (Cell Reports, 2017)
